Test results reported in PMC5298935 (2016).
Square brackets hold non-standard residues; d marks the D form. Ends that are not written are not given here. pS = N[C@@H](COP(=O)(O)O)C(=O)O

T1: IRAK1 p163 peptide 157-180 (Homo sapiens, UniProt P51617)
T1 chain: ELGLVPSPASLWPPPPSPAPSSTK

T2: IRAK1 p131 peptide 126-135 (Homo sapiens, UniProt P51617)
T2 chain: EAEAW[pS]PRKL

T3: IRAK1 p144 peptide 140-149 (Homo sapiens, UniProt P51617)
T3 chain: STFL[pS]PAFPG

T4: IRAK1 p163 peptide 157-180 (Homo sapiens, UniProt P51617, phospho-Ser163)
T4 chain: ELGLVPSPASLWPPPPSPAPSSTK


Assays:
Assay in all cases: NMR titration
[1] = target: T1, IRAK1 p163 peptide 157-180
[2] = target: T2, IRAK1 p131 peptide 126-135
[3] = target: T3, IRAK1 p144 peptide 140-149
[4] = target: T4, IRAK1 p163 peptide 157-180

Row | Kd [1] [µM] | Kd [2] [µM] | Kd [3] [µM] | Kd [4] [µM] | Binder
1 | 385 |  |  |  | MADEEKLPPGWEKRMSRSSGRVYYFNHITNASQWERPSGNSSSGGKNGQG (not fully specified; phospho-Ser163) [Pin1 WW domain 1-50]
2 |  | 161 | 689 | 230 | Pin1 PPIase domain 46-163 (protein) KNGQGEPARVRCSHLLVKHSQSRRPSSWRQEKITRTKEEALELINGYIQKIKSGEEDFESLASQFSDCSSAKARGDLGAFSRGQMQKPFEDASFALRTGEMSGPVFTDSGIHIILRTE
